According to patent US20110294738A1, “PTHR1 RECEPTOR COMPOUNDS” (priority 2008, published 2011):
Read-outs that look alike come from different tables or passages of the source. Peptide text beside a SMILES is read from it. * marks the point of attachment. Palmitoyl = CCCCCCCCCCCCCCCC(=O)*

Columns and labels:
PTHR1 [1] = biological target: T1, PTHR1 (Rattus norvegicus, UniProt P25961)
T1 sequence (P25961 27-591): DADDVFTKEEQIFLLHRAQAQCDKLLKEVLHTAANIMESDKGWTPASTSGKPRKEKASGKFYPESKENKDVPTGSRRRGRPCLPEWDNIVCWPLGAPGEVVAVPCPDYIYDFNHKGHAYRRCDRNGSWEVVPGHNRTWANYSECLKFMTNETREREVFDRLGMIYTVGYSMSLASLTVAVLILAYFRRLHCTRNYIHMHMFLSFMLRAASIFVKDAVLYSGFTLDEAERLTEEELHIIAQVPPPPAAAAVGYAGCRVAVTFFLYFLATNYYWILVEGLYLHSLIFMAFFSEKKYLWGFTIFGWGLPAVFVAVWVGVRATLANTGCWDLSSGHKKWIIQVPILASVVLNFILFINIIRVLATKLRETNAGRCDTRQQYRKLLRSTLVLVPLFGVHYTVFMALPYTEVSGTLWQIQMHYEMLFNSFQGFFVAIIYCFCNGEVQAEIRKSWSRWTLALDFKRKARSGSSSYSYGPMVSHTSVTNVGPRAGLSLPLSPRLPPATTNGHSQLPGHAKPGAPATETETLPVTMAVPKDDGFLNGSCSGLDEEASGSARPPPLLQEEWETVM
Description: (§1) cAMP Screening Assay Using DiscoveRX XS+ Kit
(§2) UMR-106 cells were seeded in 96-well white plates at 10K cells/well in growth media. Twenty four hours after seeding, cell media was removed by gentle dumping and replaced with 30 μL of compounds diluted to 10 μM final concentration in assay buffer (Hank's balanced Salt Solution, 20 mM HEPES, pH 7.4, 0.1 μM IBMX). After 30 minute incubation at room temperature, 10 μL human PTH1-34 serial diluted in assay buffer was added. Cells were incubated at 37° C. for 15 minutes before 10 μL of water soluble analog of forskolin, NKH477 was added to final concentration of 10 μM followed by 60 minute incubation at room temperature. DiscoveRX cAMP XS+ kit reagents were then added following manufacture protocol. Briefly, 10 μL of antibody was added to each well followed by 40 μL of ED/Lysis buffer mix (1/5/19 for Galacon-star/Emerald/Lysis buffer and then 1:1 with ED). After 1 hour incubation, 40 μL of EA reagent was added followed by at least 1 hour incubation before the plates were read on TopCount reader. Data was analyzed using GraphPad Prism. PTH1-34 dose-response curves were fitted using non-linear curve fit (Y=Bottom+(Top−Bottom)/(1+10̂((Log EC50−X)*HillSlope))). PTH1-34 EC50 values calculated in the presence of compounds were compared to that in the presence of vehicle control. The ratio of the EC50 values were calculated and presented as fold shift (EC50 compound/EC50 vehicle). The effect of compounds on PTH1-34 stimulated maximal response was also assessed and was presented percent inhibition (1−(Emax compound/Emax vehicle)).

PTHR1 [2] = biological target: T1, PTHR1; assay: cAMP screening assay using DiscoveRX XS+ kit (PTH1-34 dose-response in UMR-106 cells); conditions: compound 10 μM; for Inhibition of Maximal Response: PTH1-34 stimulated maximal response, 1−(Emax compound/Emax vehicle); for Fold Shift of EC50: PTH1-34 EC50 compound/EC50 vehicle
Description: as §1, §2

| Molecule | Fold Shift of EC50 (PTHR1 [1]) | Inhibition of Maximal Response (PTHR1 [2]) [%] | Fold Shift of EC50 (PTHR1 [2]) |
| --- | --- | --- | --- |
| GSEKKYLWGFT [Compound 42] | 1.3 | 40.80 |  |
| RSDTRQQYRKLLKS [Compound 66] | 16.4 | −39.00 |  |
| RETNAGRSDTRQQYRKLLFS [Compound 58] | 17.74 |  |  |
| RETNAGRSDTRQQYRKLL [Compound 59] | 5.2 | 3.00 |  |
| TNAGRADTRQQYRKLL [Compound 77] | 6.9 | 9.90 |  |
| RETNAGRSDTRQQRKLLKS [Compound 48] | 7 | −3.30 |  |
| VLATKLRETNAGRSDTRQQ [Compound 46] | 0.9 | 20.30 |  |
| LAYFRRLHSTRN [Compound 14] | 0.7 | 15.20 |  |
| AGRSDTRQQYRKLLFA [Compound 94] | 18.7 | −24.40 |  |
| CCCCCCCCCCCCCCCC(=O)N[C@@H](Cc1c[nH]c2ccccc12)C(=O)N[C@H](C(=O)N[C@@H](CC(C)C)C(=O)N[C@@H](C)C(=O)N[C@@H](CC(C)C)C(=O)N[C@@H](CC(=O)O)C(=O)NC(Cc1ccccc1)C(=O)N[C@@H](CCCCN)C(=O)N[C@@H](CCCNC(=N)N)C(=O)N[C@@H](CCCCN)C(=O)N[C@@H](C)C(=O)N[C@@H](CCCNC(=N)N)C(N)=O)[C@@H](C)O (some centres unmarked) [Compound 103] | 1.2 |  |  |
| YLHSLIFMAFFSEKKYLWGFT [Compound 35] | 1.1 | 24.50 |  |
| SGRVLATKLR [Compound 71] | 0.8 | 13.50 |  |
| NGEVQAEIKKSWSR [Compound 100] | 1.8 | 26.80 |  |
| GGYFRRLHSTRNYIH [Compound 13] | 0.7 | 29.20 |  |
| SGRVLATKLRET [Compound 72] | 0.7 | 22.30 |  |
| CCCCCCCCCCCCCCCC(=O)N[C@@H](CC(N)=O)C(=O)NCC(=O)N[C@@H](CCC(=O)O)C(=O)N[C@H](C(=O)N[C@@H](CCC(N)=O)C(=O)N[C@@H](C)C(=O)N[C@@H](CCC(=O)O)C(=O)N[C@H](C(=O)N[C@@H](CCCCN)C(=O)N[C@@H](CCCCN)C(=O)N[C@@H](CO)C(=O)N[C@@H](Cc1c[nH]c2ccccc12)C(N)=O)[C@@H](C)CC)C(C)C [Compound 99] (Palmitoyl-NGEVQAEIKKSW-NH2) | 1 |  |  |
| AGRSDTRQQYRKLLKS [Compound 65] | 14.65 |  |  |
| LAYFRRLHSTRNYIHMH [Compound 10] | 1.1 | 24.10 |  |
| SWSRWTLALDFKRKAR [Compound 102] | 1 | −25.40 |  |
| VRVLATKLRETNAGRSDTR [Compound 45] | 1.4 | 9.10 |  |

| Molecule | Fold Shift of EC50 (PTHR1 [1]) | Inhibition of Maximal Response (PTHR1 [2]) [%] | Fold Shift of EC50 (PTHR1 [2]) |
| --- | --- | --- | --- |
| LYLHSLIFMAFFSEKKYL [Compound 39] | 1.3 | 29.30 |  |
| TNAGRSDTRQQYRKLLK [Compound 84] | 9.1 | −25.20 |  |
| TNAGRSDTRQQYRF [Compound 70] | 2 | 15.10 |  |
| YFRRLHSTRNYIH [Compound 6] | 1 | 10.80 |  |
| KLRETNAGRSDTRQQRKLL [Compound 47] | 2.7 | 8.30 |  |
| DTRQQYRKLLKSTL [Compound 56] | 1.9 | −30.40 |  |
| LYLHSLIFMAFFSEKKYLWG [Compound 38] | 1.1 | 21.90 |  |
| LAYFRRLHSTR [Compound 4] | 0.9 | −74.20 |  |
| RETNAGRSDTRQQY [Compound 62] | 1.1 | −5.40 |  |
| TNAGRSDTRQQYRKLLKSTL [Compound 52] | 11.1 | 1.70 |  |
| RVLATKLRETNAGR [Compound 75] | 1.1 | 12.60 |  |
| EIKKSWSRWTLALDFKRKAR [Compound 96] | 1.1 | 7.00 |  |
| GSEKKYLWG [Compound 43] | 1.4 | 5.70 |  |
| NGEVQAEIKKSWSRWTLA [Compound 98] | 1 | 0.50 |  |
| NIVRVLATKLRE [Compound 55] | 0.6 | 26.10 |  |
| TNAGRSDTRQQYRKLA [Compound 88] | 2.8 | −25.00 |  |
| HSLIFMAFFSEKKYLWGFT [Compound 36] | 1.2 | 5.90 |  |
| SGRVLATKLRETNA [Compound 73] | 0.8 | 32.30 |  |
| DTRQQYRKLLKS [Compound 67] | 6 | 6.90 |  |
| RETNAGRSDTRQQYRKLLKS [Compound 51] | 12.45 |  |  |

| Molecule | Fold Shift of EC50 (PTHR1 [1]) | Inhibition of Maximal Response (PTHR1 [2]) [%] | Fold Shift of EC50 (PTHR1 [2]) |
| --- | --- | --- | --- |
| RRLHSTRNYIHM [Compound 15] | 1.7 | 1.50 |  |
| SGRVLATKLRETNAGR [Compound 74] | 1.9 | 22.20 |  |
| NIVRVLATKLRETNAGRSD [Compound 44] | 2 | −8.30 |  |
| LAYFRRLHSTRNYI [Compound 9] | 1.1 | 12.70 |  |
| TNAGRSDTRQQYRKLLFA [Compound 86] | 3.6 | 5.20 |  |
| NGEVQAEIKKSWSRWT [Compound 101] | 1.2 | 25.30 |  |
| TNAGRSDTRQQYRKLLA [Compound 87] | 4.1 | 8.00 |  |
| RETNAGRSDTRQ [Compound 63] | 1.1 | 1.20 |  |
| TNAGRSDTRQQYRK [Compound 69] | 5.2 | 2.50 |  |
| AYFRRLHSTRNYIH [Compound 7] | 1.2 | 36.00 |  |
| TNAGRSDTRQQYRKAL [Compound 89] |  | −20.40 | 2.3 |
| LAYFRRLHSTRNYIH [Compound 5] | 1 | 13.00 |  |
| KKSWSRWTLALDFKRKAR [Compound 97] | 4.7 | 37.20 |  |
| AGRSDTRQQYRKLLFS [Compound 95] |  | −5.70 | 19 |
| RETNAGRSDTRQQYRF [Compound 61] | 0.7 | −47.60 |  |
| TNAGRSDARQQYRKLL [Compound 79] |  | 1.20 | 7.2 |
| TNAGRSDTRAQYRKLL [Compound 81] |  | −20.80 | 13.8 |
| RRLHSTRNYIHMHL [Compound 16] | 2.45 |  |  |
| TNAGRSDTRQQYRKLL [Compound 68] | 12.36 |  |  |
| TNAARSDTRQQYRKLL [Compound 80] |  | 0.80 | 2.3 |
